Experimental data reported in publication PMC4656213, “Structural basis for inhibition of the Tob-CNOT7 interaction by a fragment screening approach” (Protein & Cell, 2015).

Molecular target: T1, human CNOT7 (human, UniProt Q9UIV1 11-262)
T1 construct: CNOT7 (Caf1), human; A second preparation (N-terminal His6, pET-28b, Rosetta2) was made for the SPR screening; also called Caf1; CAF1; source: E. coli BL21 (DE3), purified following the protocol for wild-type Tob
Assay: ITC; CNOT7 at 0.05 mM in the cell, TobN138 (wild type or K63A) at 0.45 mM titrated in; room temperature; 20 mM HEPES pH 7.5, 150 mM NaCl, 5% DMSO; one-site model
Conditions: both partners purified

T1 sequence (Q9UIV1 11-262): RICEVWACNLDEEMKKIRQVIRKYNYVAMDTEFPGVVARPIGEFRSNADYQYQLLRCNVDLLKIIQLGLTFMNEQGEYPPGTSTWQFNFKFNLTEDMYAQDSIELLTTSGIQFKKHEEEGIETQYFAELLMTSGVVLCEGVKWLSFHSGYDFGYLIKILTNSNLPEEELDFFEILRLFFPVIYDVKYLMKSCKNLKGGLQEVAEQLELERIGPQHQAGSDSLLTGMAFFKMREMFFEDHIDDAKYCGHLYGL

Row | Binder | stoichiometry N [sites]
1 | human Tob residues 1-138 (TobN138), wild type (domain or fragment, UniProt P50616 1-138, looked up, Tob (Tob1), human, residues 1-138, containing the Box A and Box B motifs; Cloned into pGEX-6P-1 via BamHI and XhoI; A second preparation (His6-SUMO, pET-28b, Rosetta2) was made for the SPR screening; also called Tob1; TobN138 WT) MQLEIQVALNFIISYLYNKLPRRRVNIFGEELERLLKKKYEGHWYPEKPYKGSGFRCIHIGEKVDPVIEQASKESGLDIDDVRGNLPQDLSVWIDPFEVSYQIGEKGPVKVLYVDDNNENGCELDKEIKNSFNPEAQV | 0.611 ± 0.00797
2 | TobN138 K63A mutant (domain or fragment, human, UniProt P50616 1-138, looked up, Tob (Tob1), human, residues 1-138, with the point mutation K63A; Made by PCR mutagenesis with the human TobN138 expression plasmid as template; source: E. coli BL21 (DE3), purified following the protocol for wild-type Tob) MQLEIQVALNFIISYLYNKLPRRRVNIFGEELERLLKKKYEGHWYPEKPYKGSGFRCIHIGEAVDPVIEQASKESGLDIDDVRGNLPQDLSVWIDPFEVSYQIGEKGPVKVLYVDDNNENGCELDKEIKNSFNPEAQV | 0.737 ± 0.00585
